{
  "source": "patent US5766897A",
  "about": "“Cysteine-pegylated proteins” (Incyte Pharmaceuticals, Inc., priority 1995, dated 1998)",
  "molecules": {"B1": {"name": "PN-1 (protein, UniProt P07093 20-398, looked up)", "Glia-derived nexin": "SHFNPLSLEELGSNTGIQVFNQIVKSRPHDNIVISPHGIASVLGMLQLGADGRTKKQLAMVMRYGVNGVGKILKKINKAIVSKKNKDIVTVANAVFVKNASEIEVPFVTRNKDVFQCEVRNVNFEDPASACDSINAWVKNETRDMIDNLLSPDLIDGVLTRLVLVNAVYFKGLWKSRFQPENTKKRTFVAADGKSYQVPMLAQLSVFRCGSTSAPNDLWYNFIELPYHGESISMLIALPTESSTPLSAIIPHISTKTIDSWMSIMVPKRVQVILPKFTAVAQTDLKEPLKVLGITDMFDSSKANFAKITTGSENLHVSHILQKAKIEVSEDGTKASAATTAILIARSSPPWFIVDRPFLFFIRHNPTGAVLFMGQINKP"}},
  "key": {"[1]": {"test_system": "human neutrophil elastase", "assay": "second-order association rate constant vs elastase", "assay_type": "biochemical", "procedure": "Refolded or soluble protein was tested for capacity to inhibit thrombin in a standard assay. Briefly, serial 2-fold dilutions of PN-1 variant were added to microtiter plate wells (50 μl/well), followed by 50 μl of a 30 μg/ml heparin solution, followed by 1 NIH unit of thrombin in 50 μl. These were allowed to incubate at 25° C. for 15 minutes. Residual thrombin activity was measured by the addition of 50 μl S-2238 (Kabi Pharmaceuticals) at 0.625 mg/ml. […]\nThe second-order rate association constants were determined for appropriate inhibitors-proteases combinations by combining equal-molar amounts of each protein (determined by titration as above) for various times from 1 second to 4 hours (as appropriate) and following the activity loss. […] Alternatively, the apparent first order rate constant was determined from the slope of a plot of log (normalized activity) vs time. The second order rate constant was calculated by dividing the apparent first order rate constant by the PN-1 (or variant) concentration used."}, "[2]": {"molecular_target": "T1, Thrombin (Homo sapiens, UniProt P00734)", "assay": "thrombin inhibition activity assay (D.4), specific activity", "assay_type": "biochemical", "procedure": "Refolded or soluble protein was tested for capacity to inhibit thrombin in a standard assay. Briefly, serial 2-fold dilutions of PN-1 variant were added to microtiter plate wells (50 μl/well), followed by 50 μl of a 30 μg/ml heparin solution, followed by 1 NIH unit of thrombin in 50 μl. These were allowed to incubate at 25° C. for 15 minutes. Residual thrombin activity was measured by the addition of 50 μl S-2238 (Kabi Pharmaceuticals) at 0.625 mg/ml. PN-1 variants were tested for their ability to inhibit urokinase using the substrate S-2444, plasmin using the substrate S-2390, tPA using the substrate S2288, Factor Xa using the substrate S-2222 or S-2765, kallikrein using the substrate S-2302, human neutrophil elastase using s-AAPV-pna (Sigma), cathepsin G using s-AAPF-pna (Sigma) in a similar manner, with or without the addition of heparin.\nEach of the PN-1 site-directed mutant proteins, as well as wild type PN-1, were modified by cysteine-PEGylation using the protocol described in F.2. The activity of wild type PN-1, each of the PN-1 site-directed mutants, and the cysteine-PEGylated wild type and mutant proteins was determined using the assay described in D.4."}, "[3]": {"test_system": "E. coli", "assay": "bactericidal effect of PN-1 added to E. coli", "assay_type": "cell-based", "details": "native PN-1 added to E. coli", "procedure": "Alternatively, PN-1 can be generated in a soluble form within E. coli by adjusting the fermentation conditions. This procedure provides a greater yield of soluble PN-1 as the fermentation temperature is decreased from 37° C. to 26° C. with a concomitant loss in inclusion body material. This is quite an unexpected finding, since PN-1 is bactericidal when native PN-1 is added to E. coli. To purify soluble PN-1, the cell supernatant from the disruption step was clarified by centrifugation and filtration or by treatment with polycations such as polyethyleneimine or Biacryl™ followed by centrifugation and filtration, and the soluble protein was purified as above. The generation of soluble material has many advantages: there is more certainty that the protein is correctly folded, there are no refolding steps, there is greater reproducibility from batch to batch."}, "[4]": {"molecular_target": "T1, Thrombin", "details": "background statement; cited from earlier work"}, "[5]": {"test_system": "Cathepsin G", "details": "background statement; cited from earlier work"}, "[6]": {"test_system": "human neutrophil elastase", "details": "background statement; cited from earlier work"}},
  "data": [
    {"molecule": "B1", "values": [
      {"measurement": "inhibitory activity against elastase", "setting": "[1]", "result": "no inhibitory activity against elastase"},
      {"measurement": "ACTIVITY, AFTER PEG MODIFICATION", "setting": "[2]; after cysteine-PEGylation with Maleimido-PEG", "result": "0.017 NIH units of thrombin inhibited per μg PN1 (variant)"},
      {"measurement": "SPECIFIC ACTIVITY, BEFORE PEG MODIFICATION", "setting": "[2]; before PEG modification", "result": "0.50 NIH units of thrombin inhibited per μg PN1 (variant)"},
      {"measurement": "REL TO WT, BEFORE PEG MODIFICATION", "setting": "[2]; before PEG modification, activity relative to wild type PN-1", "result": 1},
      {"measurement": "REL TO ACTIVITY BEFORE PEG, AFTER PEG MODIFICATION", "setting": "[2]; cysteine-PEGylated protein relative to same protein before PEGylation", "result": 0.03},
      {"measurement": "effect on E. coli", "setting": "[3]", "result": "bactericidal"},
      {"measurement": "acceleration of thrombin inhibition in the presence of heparin", "setting": "[4]", "result": "50-100 fold"},
      {"measurement": "inhibition of cathepsin G", "setting": "[5]", "result": "does not inhibit"},
      {"measurement": "inhibition of elastase", "setting": "[6]", "result": "does not inhibit"}
    ]}
  ]
}
